What all share (assay): fluorescence polarization
The target of one data set is T1, MUT-4N (Caenorhabditis elegans, UniProt Q09487 172-535, N318A;H319A;Q322A).
T1 sequence: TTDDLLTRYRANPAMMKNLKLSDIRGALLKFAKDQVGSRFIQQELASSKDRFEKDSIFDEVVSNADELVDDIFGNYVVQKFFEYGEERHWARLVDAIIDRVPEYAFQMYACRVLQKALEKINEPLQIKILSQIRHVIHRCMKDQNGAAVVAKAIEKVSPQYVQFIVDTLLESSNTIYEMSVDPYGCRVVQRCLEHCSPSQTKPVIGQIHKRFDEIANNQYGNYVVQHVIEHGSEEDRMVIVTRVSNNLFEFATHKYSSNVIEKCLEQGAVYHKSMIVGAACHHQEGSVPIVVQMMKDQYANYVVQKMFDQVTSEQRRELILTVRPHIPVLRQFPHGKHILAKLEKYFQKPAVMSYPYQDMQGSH

In a further data set the target is T2, MUT-#13 (K513R) (Caenorhabditis elegans, UniProt Q09487 172-535, K513R).
T2 sequence: T1 sequence with A147N, A148H, A151Q, K342R

The next data set concerns the target T3, MUT-#14 (Q476A/K513A) (Caenorhabditis elegans, UniProt Q09487 172-535, Q476A;K513A).
T3 sequence: T1 sequence with A147N, A148H, A151Q, Q305A, K342A

The target of the next data set is T4, MUT-#11 (K513A) (Caenorhabditis elegans, UniProt Q09487 172-535, K513A).
T4 sequence: T1 sequence with A147N, A148H, A151Q, K342A

Another data set addresses T5, MUT-8G (Caenorhabditis elegans, UniProt Q09487 172-535, N472S;Y473N;Q476E).
T5 sequence: T1 sequence with A147N, A148H, A151Q, N301S, Y302N, Q305E

In the next data set the target is T6, MUT-4C (Caenorhabditis elegans, UniProt Q09487 172-535, N318C;H319Y;Q322R).
T6 sequence: T1 sequence with A147C, A148Y, A151R

Where a chain is given by its changes, count along the chain named.

For orientation: Kd means the constant that tells how readily two partners part at equilibrium. UGUAAAUA (ssRNA) [PBE-5A FAM]: the Kd in the data set with MUT-4N came out at 161 ± 22 nM; with MUT-#13 (K513R), 60 ± 13.2 nM; with MUT-#14 (Q476A/K513A), 210 ± 27.4 nM; in the data set with MUT-#11 (K513A), 133 ± 29.8 nM; with MUT-4C it was 16.3 ± 4.64 nM. The binding result with MUT-8G is “no binding”.

The values above are taken from article PMC8464079.
